Test results reported in PMC13583000 (Nature Communications, 2026).

Biological target: the molecule itself
Experiment: SEC

B1: Corynebacterium glutamicum citrate synthase with a C-terminal Strep tag (CgCS-Strep) (enzyme)
chain: MFERDIVATDNNKAVLHYPGGEFEMDIIEASEGNNGVVLGKMLSETGLITFDPGYVSTGSTESKITYIDGDAGILRYRGYDIADLAENATFNEVSYLLINGELPTPDELHKFNDEIRHHTLLDEDFKSQFNVFPRDAHPMATLASSVNILSTYYQDQLNPLDEAQLDKATVRLMAKVPMLAAYAHRARKGAPYMYPDNSLNARENFLRMMFGYPTEPYEIDPIMVKALDKLLILHADHEQNCSTSTVRMIGSAQANMFVSIAGGINALSGPLHGGANQAVLEMLEDIKSNHGGDATEFMNKVKNKEDGVRLMGFGHRVYKNYDPRAAIVKETAHEILEHLGGDDLLDLAIKLEEIALADDYFISRKLYPNVDFYTGLIYRAMGFPTDFFTVLFAIGRLPGWIAHYREQLGAAGNKINRPRQVYTGNESRKLVPREER
- stoichiometry N: 2
